From patent US12448462 (dated 2025)
Read-outs that look alike come from different tables or passages of the source.

Key:
MUC1 (MUC1-C) on cells [1] = biological target: T1, MUC1 (MUC1-C) on cells (UniProt P15941 24-1255); assay: flow
MUC1 (MUC1-C) on cells [2] = biological target: T1, MUC1 (MUC1-C) on cells; assay: flow; remark: listed apart in the source

B1: T4E3 scFv-Fc (Fc fusion)
VH: QVQLVQSGGGLVQPGGSLRLSCAASGFTFDDYAMHWVRQAPGKGLEWVSGISWNSGSIGYADSVKGRFTISRDNAKNSLYLQMNSLRAEDTALYYCAKDIGSGSYYNYYYGMDVWGQGTTATISS
VL: SSELTQDPAVSVALGQTVRITCQGDSLRSYYASWYQQKPGQAPVLVIYGKNSRPSGIPDRFSGSNSGSTASLTITGAQAEDEADYYCNSRDRYGNSLVIFGGGTKLTVL
Question: Which results are given for B1?
Answer: EC50 (MUC1 (MUC1-C) on cells [1]): 0.033 µg/mL; EC50 (MUC1 (MUC1-C) on cells [2]): 0.033 µg/mL
